Results taken from patent publication US20220332804A1 (CSL INNOVATION, published 2022).

Columns and labels:
Assay in all cases: SPR, KD relative to WT C2;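 note: biacore SPR at 37 °C, anti-C2 mAbs captured via immobilised goat anti-human IgG, C2 alanine or serine surface mutants as analytes, 1:1 model fitted, double-referenced sensograms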
human C2 L706A = target: T1, human C2 L706A (human, UniProt P06681 21-752)
T1 sequence: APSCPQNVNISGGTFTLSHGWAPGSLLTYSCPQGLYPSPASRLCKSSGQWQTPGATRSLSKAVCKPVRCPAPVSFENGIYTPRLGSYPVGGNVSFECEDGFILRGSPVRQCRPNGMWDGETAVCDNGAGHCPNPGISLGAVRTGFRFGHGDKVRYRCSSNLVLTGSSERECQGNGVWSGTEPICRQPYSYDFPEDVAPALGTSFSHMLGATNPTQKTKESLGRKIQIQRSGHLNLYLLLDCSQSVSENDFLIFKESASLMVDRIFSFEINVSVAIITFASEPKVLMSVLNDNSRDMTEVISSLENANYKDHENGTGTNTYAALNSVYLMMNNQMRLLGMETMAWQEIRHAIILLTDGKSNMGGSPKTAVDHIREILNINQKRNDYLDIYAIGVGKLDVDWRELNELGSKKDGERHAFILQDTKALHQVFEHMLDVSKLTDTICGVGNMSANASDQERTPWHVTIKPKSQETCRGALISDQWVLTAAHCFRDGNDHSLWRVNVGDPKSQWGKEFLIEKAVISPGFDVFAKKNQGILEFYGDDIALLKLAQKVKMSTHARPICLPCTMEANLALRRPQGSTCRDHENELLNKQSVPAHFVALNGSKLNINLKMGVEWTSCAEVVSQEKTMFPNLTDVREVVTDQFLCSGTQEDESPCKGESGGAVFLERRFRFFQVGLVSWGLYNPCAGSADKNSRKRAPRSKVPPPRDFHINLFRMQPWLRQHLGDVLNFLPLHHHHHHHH

human C2 A436S = target: T2, human C2 A436S (human, UniProt P06681 21-752)
T2 sequence: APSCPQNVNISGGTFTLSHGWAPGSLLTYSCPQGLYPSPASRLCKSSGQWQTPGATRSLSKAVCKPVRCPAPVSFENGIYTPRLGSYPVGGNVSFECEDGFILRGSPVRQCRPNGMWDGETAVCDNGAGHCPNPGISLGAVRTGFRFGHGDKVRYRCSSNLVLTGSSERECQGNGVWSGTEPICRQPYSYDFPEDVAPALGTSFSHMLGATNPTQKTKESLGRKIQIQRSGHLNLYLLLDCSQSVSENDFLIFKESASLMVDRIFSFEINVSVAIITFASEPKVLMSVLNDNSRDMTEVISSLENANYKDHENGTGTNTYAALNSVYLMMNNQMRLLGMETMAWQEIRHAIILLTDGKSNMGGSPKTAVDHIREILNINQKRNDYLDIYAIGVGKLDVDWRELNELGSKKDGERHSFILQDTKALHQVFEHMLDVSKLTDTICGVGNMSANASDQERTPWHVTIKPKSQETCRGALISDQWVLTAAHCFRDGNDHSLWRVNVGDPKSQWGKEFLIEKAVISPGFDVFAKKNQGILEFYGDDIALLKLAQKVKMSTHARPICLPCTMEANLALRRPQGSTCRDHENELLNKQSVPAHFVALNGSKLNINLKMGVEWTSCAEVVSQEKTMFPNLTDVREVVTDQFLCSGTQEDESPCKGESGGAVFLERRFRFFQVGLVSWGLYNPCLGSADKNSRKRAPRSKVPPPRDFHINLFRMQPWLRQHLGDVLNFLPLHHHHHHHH

human C2 P486A = target: T3, human C2 P486A (human, UniProt P06681 21-752)
T3 sequence: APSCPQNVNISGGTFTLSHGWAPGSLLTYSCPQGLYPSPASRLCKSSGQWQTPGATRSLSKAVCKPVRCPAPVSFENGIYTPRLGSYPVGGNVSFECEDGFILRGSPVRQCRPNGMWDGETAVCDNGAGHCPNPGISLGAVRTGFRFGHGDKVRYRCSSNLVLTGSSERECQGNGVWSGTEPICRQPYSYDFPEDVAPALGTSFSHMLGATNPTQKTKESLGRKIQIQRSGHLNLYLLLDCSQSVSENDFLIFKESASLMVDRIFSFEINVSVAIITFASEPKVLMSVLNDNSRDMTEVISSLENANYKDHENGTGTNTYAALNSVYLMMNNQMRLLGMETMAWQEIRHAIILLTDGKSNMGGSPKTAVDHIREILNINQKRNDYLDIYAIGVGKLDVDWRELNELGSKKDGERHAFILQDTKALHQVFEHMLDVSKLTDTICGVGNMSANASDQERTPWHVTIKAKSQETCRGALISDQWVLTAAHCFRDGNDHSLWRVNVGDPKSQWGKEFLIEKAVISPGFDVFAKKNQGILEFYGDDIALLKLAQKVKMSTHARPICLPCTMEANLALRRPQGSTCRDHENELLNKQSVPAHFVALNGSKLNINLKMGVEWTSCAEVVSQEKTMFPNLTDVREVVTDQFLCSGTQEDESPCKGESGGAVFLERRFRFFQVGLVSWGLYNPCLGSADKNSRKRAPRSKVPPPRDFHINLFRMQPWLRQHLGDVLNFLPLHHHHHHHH

human C2 K676S = target: T4, human C2 K676S (human, UniProt P06681 21-752)
T4 sequence: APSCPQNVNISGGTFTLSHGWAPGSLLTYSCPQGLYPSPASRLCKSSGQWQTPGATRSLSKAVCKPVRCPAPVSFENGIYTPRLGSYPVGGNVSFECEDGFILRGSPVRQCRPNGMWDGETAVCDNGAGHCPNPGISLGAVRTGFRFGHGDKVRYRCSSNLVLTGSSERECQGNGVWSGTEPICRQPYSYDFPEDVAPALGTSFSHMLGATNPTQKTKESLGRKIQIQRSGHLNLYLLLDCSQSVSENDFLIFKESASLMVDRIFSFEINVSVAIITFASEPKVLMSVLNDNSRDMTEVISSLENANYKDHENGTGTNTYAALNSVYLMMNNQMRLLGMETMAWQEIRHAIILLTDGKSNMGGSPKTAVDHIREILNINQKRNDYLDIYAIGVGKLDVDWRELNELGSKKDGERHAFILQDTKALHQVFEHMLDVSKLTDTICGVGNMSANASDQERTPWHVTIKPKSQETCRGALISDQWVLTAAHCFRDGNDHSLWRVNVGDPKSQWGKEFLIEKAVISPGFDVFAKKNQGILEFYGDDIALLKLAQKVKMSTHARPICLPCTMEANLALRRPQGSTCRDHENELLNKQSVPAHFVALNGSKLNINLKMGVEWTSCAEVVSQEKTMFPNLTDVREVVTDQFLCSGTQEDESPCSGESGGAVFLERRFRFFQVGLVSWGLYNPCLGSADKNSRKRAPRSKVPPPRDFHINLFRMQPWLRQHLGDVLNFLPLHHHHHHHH

B1: RF16-226 (antibody, human IgG4 S228P, lambda)
heavy: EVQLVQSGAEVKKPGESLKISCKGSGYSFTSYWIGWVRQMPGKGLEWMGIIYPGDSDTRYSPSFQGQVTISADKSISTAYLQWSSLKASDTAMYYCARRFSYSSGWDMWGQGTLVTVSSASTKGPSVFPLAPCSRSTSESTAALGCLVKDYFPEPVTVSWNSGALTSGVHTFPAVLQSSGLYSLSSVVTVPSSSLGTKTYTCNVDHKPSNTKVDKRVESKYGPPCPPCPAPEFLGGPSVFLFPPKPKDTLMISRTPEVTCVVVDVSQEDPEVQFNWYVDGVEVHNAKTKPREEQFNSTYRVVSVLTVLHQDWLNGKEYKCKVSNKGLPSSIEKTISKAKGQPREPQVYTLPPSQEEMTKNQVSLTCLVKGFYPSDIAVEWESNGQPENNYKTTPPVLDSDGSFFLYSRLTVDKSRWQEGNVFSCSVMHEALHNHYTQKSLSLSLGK
light: SYELTQPPSVSVSPGQTARITCSGDALTSKYVAWYQQKSGLAPLLVIYEDTRRPSGIPAKFSGSSSGSVATLTISGAHGDDEADYYCYSTDASGHQRVFGGGTKLTVLSQPKAAPSVTLFPPSSEELQANKATLVCLISDFYPGAVTVAWKADGSPVKAGVETTKPSKQSNNKYAASSYLSLTPEQWKSHRSYSCQVTHEGSTVEKTVAPTECS
notes: pH-dependent anti-C2 antibody from a phage display library; also called WT
B1 gave a Fold diff (human C2 L706A) of 23 fold, a Fold diff (human C2 A436S) of 1 fold and a Fold diff (human C2 P486A) of 1 fold. The Fold diff (human C2 K676S) was 2 fold.
